Here are results for two molecules from publication PMC2362362 (British Journal of Cancer, 1999).

The target of the assay is T1, extracellular domain of the human CD30 receptor fused to the hinge, CH2 and CH3 domain of human IgG1 … (Homo sapiens (Human)., UniProt P28908).
T1 construct: also called recombinant, human sCD30-Fc protein
Put plainly: SPR; BIAcore 2000; sCD30-Fc covalently coupled to a CM-5 sensorchip (450 RU, 'low density'); surface saturated by multiple injections of antibody or fragment, flow 20 ul/min; dissociation rates by curve fitting (monovalent for the scFv, bivalent for the mAb). The conditions noted are these: both partners purified.

T1 sequence (P28908 19-385): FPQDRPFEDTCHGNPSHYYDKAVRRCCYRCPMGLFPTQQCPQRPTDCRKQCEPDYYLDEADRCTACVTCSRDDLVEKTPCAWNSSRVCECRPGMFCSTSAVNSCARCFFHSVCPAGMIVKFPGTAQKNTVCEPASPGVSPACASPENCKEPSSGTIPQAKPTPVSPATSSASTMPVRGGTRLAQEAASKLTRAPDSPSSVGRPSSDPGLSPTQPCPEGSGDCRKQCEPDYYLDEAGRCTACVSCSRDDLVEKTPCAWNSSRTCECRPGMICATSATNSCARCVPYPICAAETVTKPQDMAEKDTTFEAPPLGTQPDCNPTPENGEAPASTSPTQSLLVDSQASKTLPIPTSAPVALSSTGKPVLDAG

B1: Ki-4 single-chain variable fragment (scFv), soluble (scFv, V domains shown)
VH: QVKLQESGTELAKPGAAVKMSCKASGYTFTDYWMHWVKQRPGQGLEWIGYINPNTAYTDYNQKFKDKATLTADKSSSTAYMQLRSLTSEDSAVYYCAKKTTQTTWGFPFWGQGTTVTVSS
VL: DIVLTQSPKSMAMSVGERVTLSCKASENVDSFVSWYQQKPGQSPKLLIYGASNRYTGVPDRFAGSGSGRDFTLTISSVQAEDLADYHCGQNYRYPLTFGAGTKLEIK
notes: also called Ki-4 scFv; His-tagged Ki-4 scFv
In the case of B1, the dissociation rate constant (koff) was found to be 0.00018 s⁻¹ and the “t1/2 of the antibody-antigen complex (=ln2/koff)” value was found to be 1.07 h.

B2: anti-CD30 monoclonal antibody Ki-4 (antibody, V domains shown)
VH: B1 VH
VL: B1 VL
notes: also called Ki-4 mAb; Ki-4 whole antibody; copies: 2 + 2
Regarding B2, the koff worked out at 0.00012 s⁻¹ and the “t1/2 of the antibody-antigen complex (=ln2/koff)” value worked out at 1.6 h.

The term koff denotes the first-order rate constant of dissociation. Lower therefore signals slow dissociation.
